Measured values from a protein production outcome set (Wang et al. 2014).

Assay: label from the status in PepcDB records

For “MAGLSGAQIPDGEFTAVVYRLIRNARYAEAVQLLGGELQRSPRSRAGLSLLGYCYYRLQEFALAAECYEQLGQLHPELEQYRLYQAQALYKACLYAEATRVAFLLLDNPAYHSRVLHLQAAIKYSEGDLPGSRSLVEQLPSREGGEESGGENETDGQINLGCLLYKEGQYEAACSKFFAALQASGYQPDLSYNLALAYYSSRQYASALKHIAEIIERGIRQHPELGVGMTTEGIDVRSVGNTLVLHQTALVEAFNLKAAIEYQLRNYEAAQEALTDMPPRAEEELDPVTLHNQALMNMDARPTEGFEKLQFLLQQNPFPPETFGNLLLLYCKYEYFDLAADVLAENAHLIYKFLTPYLYDFLDAVITCQTAPEEAFIKLDGLAGMLTEVLRKLTIQVQEARHNRDDEAIKKAVNEYDETMEKYIPVLMAQAKIYWNLENYPMVEKIFRKSVEFCNDHDVWKLNVAHVLFMQENKYKEAIGFYEPIVKKHYDNILNVSAIVLANLCVSYIMTSQNEEAEELMRKIEKEEEQLSYDDPDKKMYHLCIVNLVIGTLYCAKGNYDFGISRVIKSLEPYNKKLGTDTWYYAKRCFLSLLENMSKHTIMLRDSVIQECVQFLEHCELHGRNIPAVIEQPLEEERMHVGKNTVTYESRQLKALIYEIIGWNI”, the protein production was “failed”.

With “MSLDRTTQQPFGNGYLSVEQANLILNHLPLEITFVNKDDIFQYYNDSVPAAEMVFKRTPSQVGRNVELCHPPKVLDKVKKVFELLRNGQRDKVNMWFQSERLGKFVYVTYAAVRDQAGDFQGVLEYVQDIKPFFELDSEFNRDEGHHHHHH” the protein production was “not failed”.

In the case of “MELVIILLALSLLMFVAYRGFSVILFAPIFALFAVFLTEPSYVLPFFSNIFMEKMVGFIKLYFPVFLLGAIFGKVVEMSGIADSIAKTIIELVGEKRTILAIVLMGAILTYSGVSVYVVVFAVYPFAAKLFRQANIPKRLIPGTIVLGAVTFTMDALPGSPQIQNVIPTTFFKTDIYAAPILGIVGAIFVLTVGLLYLESRRKKAKAEGEGYFGFNDGNTEMAASLQVEQKNMPLTNNIEITRAQQLITFIPLILVGVMNKVFTIMIPKWYPSGFDFSAIGMKAFGKVELSAVVGIWSVELALIIGILTTLLLYWKRVVTGFQAGLNTSIGGALLATMNTGAEFGFGGVIAALPGFAIMRDGISATFTNPLVNGAVTTNILAGITGSASGGMGIVLSAMGDKFIAAANQFDIPLEVMHRIVSMASGGMDTLPHNGAIITILTVTGLTHKQSYKDIFAITILKTVAVFLVIAFYTLTGLY”, the protein production was “failed”.

For “MDPRQFEHTVVADNDIHSIVMSYLLHNCFNETADSLASSTGVKQPAIDRDNMERRKQIIHFILERKALKAFELTEQLAQDLLEKNKDLQFDLLCLHFVELICAGNCTEALKFGKTRLAPFGKVKKYVEKLEDVMALLAYEDPEKSPMFHLLSSEYRQQVADNLNRTILEHTNHPSYTPMERIIQQVTVVRQYLTEENGKDAFPPFSLKDSLKG”, the protein production was “failed”.

For “PLKEQKVINTANIKTNSKLDLAEYENGLINIATQQFDTESHVLQLNQYIPEKLIDELVAKVEAPVLTNIIEQDYFGKQNSNELSLSGVMIGLAMSSSVSNEEAMSKGTEVAKQLIEAINKNDKYNKSPITFAIFKQESTSSLKNGTYIASATVQKNDTNLGNWSTIDEKSYSYPSDEFTQAHGEDNTKINNFAKEIKGFSNGDFIPVNAKVSYKKDQMDTLNMNIVIKYNGKTELMALTQLAAQGMLDKLPKDAKVQLQIKSESKIEAVIIKEKNSDKPFVSFL”, the protein production was “not failed”.

In the case of “MIKAILIFNNHGKPRLCKFYQHYSEDTQQQIIRETFHLVSKRDENVCNFLEGGLLIGGSDNKLIYRHYATLYFVFCVDSSESELGILDLIQVFVETLDKCFENVCELDLIFHVDKVHNILAEMVMGGMVLETNMNEIVTQIDA”, the protein production was “not failed”.

For “MIEQPYPSVADTDAAPPTAQGKIDQYFQISARGSTQRREVVAGITTFMAMVYAVFVVPGMLGKAGFDTSAVFVAVCLTTAFGSLLMGLWAKLPIAIGCAISLTAFMAFGLVLGQHLSPAVALGAVFLMGVVFTAISVTGVRTWILRNLPAGVAHGAGIGIGLFLLLIASNEVGLVIKNPGPGLPVSLGNITAFPVMMSILGLAAIFGLERRRVPGGILLVIVAISALGLVFDPSVKFTGIFALPTLSAPGHTSLIGAMDIRGALSAAVLPSVLALVMTAVFDATGTIRAVAGQANQLDATGRIHNGGRALTADSVSSIFSAFFGGAPAAAYIESTVGVAAGARTGLAAVTVGALFLAVMFFSPLAGLVPSYATAPALMYVGLLMLSSVSRLHMDDLVDALSGLVCAVFIVLTCNIVTGIMLGFCTLVIGRIVSGEWRKLNIGTVAIAVALAAFYAGGWAI”, the protein production was “failed”.

With “MNIQRETSGHIAAIVTILIWGTTFISTKVLLADFSPMEILFYRFLMGFIALILVRPNMIPFRNWRQELLFAGAGLFGVTLYFLLENIALTYTYASNVGMIVSIIPMITAVLAHFLLEGEKLRLTFLIGFISALIGLLLITFNGNVVLRLNPLGDIMAAGAALVFGGYSIFMKKLSAYEYHIIELTQRVFLYGLLFMVPALFLFDFHFDLSRFSSASNILNMLFLGIGASALCFATWNYSVGVLGAVKSSAYIYMVPVITIAASVLILHENMTWIALLGGALTLLGLYISELKPKAKLLENGCKMDA” the protein production was “failed”.

In the case of “MAASTSSSSSSSSSSLSSPSPCTWRYMTFTSFHGPDVRNTFLSHLRKQFNTNGITMFDDQRMERSQTLAPTLTQAIRESKIYIVLLSKNYASSSWCLDELLEILNCKEKRGQRVMTIFYGVNPSDVRKQTGEFGIAFNETCARKTEEERRKWSHALTCVGNITGVHVQDRDDEANMIEKIATDVSEKLNATESKDFDEMVGIKAHLTKIESLLSLDYDKVKIVGISGPAGIGKSTIARALHNLLSSSFHLSCFMENLISQSNPHSSLEYSSKLSLQEQLLSQVLNEKDIRIRHLGAIQERLHDQRVLIILDDVTSLEQLEVLANIKWYGPGSRIIVITKKKDILVQHGICDIYHVGFPTDADALKIFCLSAYRQTSPPDGSMKIHECEMFIKICGNLPLHLHVLGSALRGRSYGRVQSLCNLVSLADFV”, the protein production was “failed”.

For “MRLSPAPLKLSRTPALLALALPLAAALAFSDETLDKVPKSEGYCSRILRAQGTRREGYTEFSLRVEGDPDFYKPGTSYRVTLSAAPPSYFRGFTLIALRENREGDKEEDHAGTFQIIDEEETQFMSNCPVAVTESTPRRRTRIQVFWIAPPAGTGCVILKASIVQKRIIYFQDEGSLTKKLCEQDSTFDGVTDKPILDCCACGTAKYRLTFYGNWSEKTHPKDYPRRANHWSAIIGGSHSKNYVLWEYGGYASEGVKQVAELGSPVKMEEEIRQQSDEVLTVIKAKAQWPAWQPLNVRAAPSAEFSVDRTRHLMSFLTMMGPSPDWNVGLSAEDLCTKECGWVQKVVQDLIPWDAGTDSGVTYESPNKPTIPQEKIRPLTSLDHPQSPFYDPEGGSITQVARVVIERIARKGEQCNIVPDNVDDIVADLAPEEKDEDDTPETCIYSNWSPWSACSSSTCDKGKRMRQRMLKAQLDLSVPCPDTQDFQPCMGPGCSDEDGSTCTMSEWITWSPCSISCGMGMRSRERYVKQFPEDGSVCTLPTEETEKCTVNEECSPSSCLMTEWGEWDECSATCGMGMKKRHRMIKMNPADGSMCKAETSQAEKCMMPECHTIPCLLSPWSEWSDCSVTCGKGMRTRQRMLKSLAELGDCNEDLEQVEKCMLPECPIDCELTEWSQWSECNKSCGKGHVIRTRMIQMEPQFGGAPCPETVQRKKCRIRKCLRNPSIQKLRWREARESRRSEQLKEESEGEQFPGCRMRPWTAWSECTKLCGGGIQERYMTVKKRFKSSQFTSCKDKKEIRACNVHPC”, the protein production was “failed”.

For “MVSRQEGTLYSRKRDFTVCGEEFHNSFKKSKQEDQSQSTLFNERPKSESMRSITFDFELHLHTPLPSDWQTKMSLDLELNLSPSGSPSRTTTKKYESSSIHNETVSSSKIKVLTNTSKKSIIGTGLSRSPSWLAFEGGDDNDVDHKGQEMVTTVCMKCHMLVMLCTSTPVCPNCKFMHPHDHSSTKLFKPSNLLRLLC”, the protein production was “failed”.
